# In patent US20120014945A1 (ACADEMIA SINICA, published 2012):
# B1: DB25-2 (antibody, V domains shown)
# VH: QVQLKESGPGLVQPSQSLSITCTVSGFSLTDYGVHWIRQSPGKGLEWLGVIWRGGITDYNAAFMSRLSITKDNSKSQVFFKMDSLQPDDSAIYYCAKNFGTHYYGSNYGNFDYWGQGTTLTVSS
# VL: VVMTQTPKFLLVSAGDRVTITCKASQSVSNDVAWYQQKPGQSPKLLIYYVSNRYSGVPDRFTGSGYGTDFTFTINTVQAEDLAVYFCQQDYSSPYTFGGGTKLEIK
# Key:
# [1] = target: DENV-2 (16681) envelope (E) protein (dengue virus type 2 (DENV-2 16681)) (UniProt P29990); test: cell-based or functional assay
# [2] = target: T1, DENV-4 (H241) envelope (E) protein (dengue virus type 4 (DENV-4 H241), UniProt Q58HT7 280-774); test: ELISA on DENV-4-infected C6/36 cells
# T1 construct: whole, on cells
# [3] = target: T2, DENV-3 (H87) envelope (E) protein (dengue virus type 3 (DENV-3 H87), UniProt P27915 281-773); test: ELISA on DENV-3-infected C6/36 cells
# T2 construct: whole, on cells
# T1 sequence (Q58HT7 280-774): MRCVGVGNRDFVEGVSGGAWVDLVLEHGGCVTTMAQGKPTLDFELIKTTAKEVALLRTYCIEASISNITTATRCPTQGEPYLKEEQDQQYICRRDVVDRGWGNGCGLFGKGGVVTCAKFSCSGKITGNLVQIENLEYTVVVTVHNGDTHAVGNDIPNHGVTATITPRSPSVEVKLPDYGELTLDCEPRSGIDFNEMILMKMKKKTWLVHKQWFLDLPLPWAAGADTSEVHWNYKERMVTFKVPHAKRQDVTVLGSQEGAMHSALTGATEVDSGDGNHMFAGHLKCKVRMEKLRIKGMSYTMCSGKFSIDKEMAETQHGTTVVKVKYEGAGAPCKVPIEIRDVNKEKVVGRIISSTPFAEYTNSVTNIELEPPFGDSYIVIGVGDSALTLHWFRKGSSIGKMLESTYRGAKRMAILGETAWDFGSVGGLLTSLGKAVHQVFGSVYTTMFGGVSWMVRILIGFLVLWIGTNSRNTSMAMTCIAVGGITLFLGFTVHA
molecule,measurement,setting,value
3H5 (antibody),"PRNT50 (µg/ml), D2",[1],< 0.41 µg/mL
same,concentration of complete inhibition of viral infection (PRNT),[1],11 µg/mL
normal mouse IgG (antibody),neutralizing activity (PRNT),[1],> 100 µg/mL
4G2 (antibody),"PRNT50 (µg/ml), D2",[1],< 11 µg/mL
B1,binding result,[2],no binding (tested: A490 < 0.2 (MAb at 1 µg/ml))
same,binding result,[3],no binding (tested: A490 < 0.2 (MAb at 1 µg/ml))
